Our source for the Kd and yeast surface expression values is the FLAb antibody collection (doi:10.7554/elife.23156).

By Kd is commonly meant the constant that tells how readily two partners part at equilibrium.

B1: scFv; the commonest letter at each place (parent)
chain 1: EVKLDETGGGLVQPGRPMKLSCVASGFTFSDYWMNWVRQSPEKGLEWVAQIRNKPYNYETYYSDSVKGRFTISRDDSKSSVYLQMNNLRVEDMGIYYCTGSYYGMDYWGQGTSVTVS
chain 2: DVVMTQTPLSLPVSLGDQASISCRSSQSLVHSNGNTYLRWYLQKPGQSPKVLIYKVSNRFSGVPDRFSGSGSGTDFTLKISRVEAEDLGVYFCSQSTHVPWTFGGGTKLEIK

The variants in the series “fluorescein” derive from B1. Kind of series: Kd (Tite-Seq). Conditions: with fluorescein; format: scFv 4-4-20, heavy + light.
The variants in series [1] derive from B1. Kind of series: yeast surface expression (ratio to wild type); higher = more expressed. Conditions: format: scFv 4-4-20, heavy + light.

Some results are limits rather than exact numbers.

chain 1 Y102L D106E: the Kd in the series with fluorescein was found to be 3.04 µM. For the same variant, in series [1], the yeast surface expression was 1.26.

On to chain 1 Y102V Y103C, for which, in the series with fluorescein, the Kd is not below 10 µM. In series [1], the yeast surface expression was 0.798.

On to chain 1 Y103G G109T, for which the Kd with fluorescein was not below 10 µM. Besides, the yeast surface expression in series [1] was 0.68.

chain 1 Y102H W108A: the Kd with fluorescein amounted to 0.0146 µM. The yeast surface expression in series [1] turned out to be 0.528.

As to chain 1 Y102H W108M, in the series with fluorescein, the Kd was not above 0.000316 µM. Further, the yeast surface expression in series [1] worked out at 0.91.

For the variant chain 1 Y102P G104S M105H, in the series with fluorescein, the Kd is not below 10 µM. Further, in series [1], the yeast surface expression was determined as 0.325.

Take chain 1 Y102K M105N: in the series with fluorescein, the dissociation constant (Kd) was determined as 0.02 µM. Further, the yeast surface expression in series [1] is 0.916.

In the case of chain 1 Y102K M105Y, in the series with fluorescein, the Kd was 0.0125 µM. Besides, the yeast surface expression in series [1] was determined as 0.955.

In the case of chain 1 Y103H G104F, the equilibrium dissociation constant (Kd) with fluorescein is not below 10 µM. The yeast surface expression in series [1] was 0.477.

Turning to chain 1 Y102K G104L D106G, the Kd with fluorescein was not below 10 µM. Also, the yeast surface expression in series [1] was 0.302.

For chain 1 Y102W M105E, in the series with fluorescein, the Kd was found to be 5.96 µM. In series [1], the yeast surface expression was 1.02.

Regarding chain 1 Y102M Y103F D106Y, the Kd with fluorescein is not below 10 µM. In addition, the yeast surface expression in series [1] came out at 0.388.

Consider chain 1 Y102H Y107F G109K, for which the Kd with fluorescein is not below 10 µM. Also, in series [1], the yeast surface expression is 0.242.

Turning to chain 1 Y102P G104Y W108S, the dissociation constant Kd with fluorescein was not below 10 µM. The yeast surface expression in series [1] was found to be 0.379.

For chain 1 Y102N W108D, the Kd with fluorescein is not below 10 µM. In addition, the yeast surface expression in series [1] was 0.259.

As for chain 1 Y102R M105G, in the series with fluorescein, the equilibrium dissociation constant (Kd) is not below 10 µM. Besides, the yeast surface expression in series [1] was 0.754.

For chain 1 Y102R M105A, the Kd in the series with fluorescein worked out at 8.56 µM. In series [1], the yeast surface expression was 1.1.

Regarding chain 1 Y102R M105N, in the series with fluorescein, the Kd amounted to 0.0318 µM. Besides, the yeast surface expression in series [1] was 0.764.

As to chain 1 Y102K Y103D, the Kd with fluorescein came out at 0.0132 µM. In addition, the yeast surface expression in series [1] is 1.24.

chain 1 Y102K Y103M: in the series with fluorescein, the Kd was 1.14 µM. In addition, in series [1], the yeast surface expression was 1.08.

Turning to chain 1 Y102H G109P, the Kd in the series with fluorescein was not below 10 µM. Further, the yeast surface expression in series [1] was 0.281.

As to chain 1 Y102H G109W, the dissociation constant Kd with fluorescein was not below 10 µM. Further, the yeast surface expression in series [1] was 0.254.

For chain 1 Y103D G104Y, in the series with fluorescein, the Kd was not below 10 µM. Further, in series [1], the yeast surface expression came to 0.898.

As for chain 1 Y102Q, in the series with fluorescein, the Kd turned out to be 0.0335 µM. In series [1], the yeast surface expression was found to be 1.12.

In the case of chain 1 Y102L, the Kd with fluorescein is 0.61 µM. Further, the yeast surface expression in series [1] was found to be 0.974.

chain 1 Y102K: the Kd in the series with fluorescein was 0.021 µM. The yeast surface expression in series [1] amounted to 0.81.

With chain 1 Y102W, the Kd with fluorescein amounted to 0.00361 µM. Also, the yeast surface expression in series [1] worked out at 0.638.

For the variant chain 1 Y102T, the Kd in the series with fluorescein stood at 0.00894 µM. In addition, the yeast surface expression in series [1] was found to be 0.932.

For the variant chain 1 Y102I, in the series with fluorescein, the Kd came to 0.00279 µM. Moreover, the yeast surface expression in series [1] is 1.16.

As to chain 1 Y102V, the Kd in the series with fluorescein was found to be 0.0107 µM. Further, the yeast surface expression in series [1] was found to be 0.936.

In the case of chain 1 Y102H, the Kd in the series with fluorescein was 0.004 µM. Further, in series [1], the yeast surface expression was determined as 1.17.

On to chain 1 Y102P, for which the Kd in the series with fluorescein is not below 10 µM. Besides, the yeast surface expression in series [1] worked out at 0.77.

chain 1 Y102R: in the series with fluorescein, the Kd amounted to 0.0252 µM. Besides, the yeast surface expression in series [1] amounted to 1.06.

On to chain 1 Y102S, for which the Kd in the series with fluorescein worked out at 0.000869 µM. The yeast surface expression in series [1] came to 1.14.

Regarding chain 1 Y102N, the Kd with fluorescein stood at 0.0175 µM. For the same variant, the yeast surface expression in series [1] turned out to be 1.04.

For chain 1 Y102M, in the series with fluorescein, the Kd stood at 4.6 µM. Moreover, the yeast surface expression in series [1] is 0.944.

Consider chain 1 Y103I G104M, for which the Kd in the series with fluorescein is not below 10 µM. In addition, in series [1], the yeast surface expression came out at 0.368.

Consider chain 1 Y102M D106A W108A, for which, in the series with fluorescein, the Kd is not below 10 µM. For the same variant, the yeast surface expression in series [1] stood at 0.612.

chain 1 Y102H M105T: the Kd in the series with fluorescein was not below 10 µM. In addition, in series [1], the yeast surface expression is 0.972.

For chain 1 Y102H M105P, the Kd with fluorescein was not below 10 µM. Besides, the yeast surface expression in series [1] is 0.764.

For the variant chain 1 Y102P M105K, the Kd with fluorescein is not below 10 µM. Further, the yeast surface expression in series [1] stood at 0.473.

Turning to chain 1 Y102P M105S, in the series with fluorescein, the Kd was not below 10 µM. Also, the yeast surface expression in series [1] was 0.416.

For chain 1 Y102Q G104L W108S, in the series with fluorescein, the Kd is not below 10 µM. Moreover, the yeast surface expression in series [1] was 0.348.

Consider chain 1 Y103A G104A, for which the Kd with fluorescein is not below 10 µM. Also, in series [1], the yeast surface expression turned out to be 0.911.

Consider chain 1 Y103D D106R, for which the dissociation constant Kd with fluorescein was not below 10 µM. In series [1], the yeast surface expression stood at 0.454.

As to chain 1 Y102T M105K, the dissociation constant Kd with fluorescein came to 0.00708 µM. Further, the yeast surface expression in series [1] is 0.849.

chain 1 Y102M M105F: in the series with fluorescein, the Kd is not below 10 µM. Besides, the yeast surface expression in series [1] was 0.995.

With chain 1 Y102N Y103C, in the series with fluorescein, the Kd came out at 4.14 µM. Besides, the yeast surface expression in series [1] is 0.692.

On to chain 1 Y102M Y107S, for which the Kd in the series with fluorescein is not below 10 µM. Also, the yeast surface expression in series [1] came to 0.685.

Turning to chain 1 Y102H G104F, in the series with fluorescein, the Kd was not below 10 µM. Also, in series [1], the yeast surface expression is 0.598.

Regarding chain 1 Y102H D106Q, the Kd in the series with fluorescein was not below 10 µM. For the same variant, the yeast surface expression in series [1] was 0.937.

As to chain 1 Y102H D106G, the Kd in the series with fluorescein is not below 10 µM. In series [1], the yeast surface expression worked out at 0.856.

With chain 1 Y102H D106I, in the series with fluorescein, the Kd was not below 10 µM. Moreover, the yeast surface expression in series [1] worked out at 0.595.

chain 1 Y102L M105I: the Kd with fluorescein is not below 10 µM. For the same variant, the yeast surface expression in series [1] is 1.57.

For the variant chain 1 Y102W Y103W, the Kd in the series with fluorescein was 2.88 µM. Further, the yeast surface expression in series [1] is 0.645.

Regarding chain 1 Y102T D106P, the Kd with fluorescein is not below 10 µM. Also, the yeast surface expression in series [1] is 0.351.

Regarding chain 1 Y102M D106T, the Kd with fluorescein is not below 10 µM. For the same variant, in series [1], the yeast surface expression turned out to be 1.07.

For the variant chain 1 Y102I Y103E G109K, the Kd with fluorescein is not below 10 µM. For the same variant, in series [1], the yeast surface expression came to 0.364.
